This note sets out measurements from article PMC3375153, “The Role of Arg13 in Protein Phosphatase M tPphA from Thermosynechococcus elongatus” (Enzyme Research, 2012).

To fix the notation:
B1: tPphA (Thermosynechococcus vestitus BP-1; R13N) (protein)
chain: MDVAGLTDCGLINKSNQDAFYIDEKHQRFFIVADGMGGHAGGEEASRLAVDHIRQYLETHLEDLQHDPVTLLRQAFLAANHAIVEQQRQNSARADMGTTAVVILLDEKGDRAWCAHVGDSRIYRWRKDQLQQITSDHTWIAQAVQLGSLTIEQARQHPWRHVLSQCLGREDLSQIDIQPIDLEPGDRLLLCSDGLTEELTDDVISIYLSEPNVQKAAAALVDAAKTHGGRDNVTVVVISV
B2: tPphA (Thermosynechococcus vestitus BP-1; R13S) (protein)
chain: B1 chain with N13S
B3: tPphA (Thermosynechococcus vestitus BP-1; R13K) (protein)
chain: B1 chain with N13K
B4: tPphA (Thermosynechococcus vestitus BP-1; R13P) (protein)
chain: B1 chain with N13P
B5: tPphA (Thermosynechococcus vestitus BP-1) (protein)
chain: B1 chain with N13R
B6: tPphA (Thermosynechococcus vestitus BP-1; R13G) (protein)
chain: B1 chain with N13G
B7: tPphA (Thermosynechococcus vestitus BP-1; R13Q) (protein)
chain: B1 chain with N13Q
B8: tPphA (Thermosynechococcus vestitus BP-1; R13A) (protein)
chain: B1 chain with N13A
B9: tPphA (Thermosynechococcus vestitus BP-1; R13C) (protein)
chain: B1 chain with N13C
B10: tPphA (Thermosynechococcus vestitus BP-1; R13H) (protein)
chain: B1 chain with N13H
B11: tPphA (Thermosynechococcus vestitus BP-1; R13Y) (protein)
chain: B1 chain with N13Y

Residue numbers refer to the chain shown, from its start. Names may count otherwise.

Substrate in this data set: O=[N+]([O-])c1ccc(OP(=O)(O)O)cc1
Put plainly: chromogenic phosphatase assay, A400. In kind it is biochemical, Thermosynechococcus vestitus. Particulars: 50 mM Tris-HCl pH 8.3, 50 mM NaCl, 1 mM DTT, 2 mM MnCl2, 30 °C, pNPP 0.1-10 mM. An excerpt: chromogenic phosphatase assay, A400 on tPphA
With B1, the Km (commonly the concentration of substrate that gives half-maximal velocity) came to 4.73 ± 0.53 mM; the kcat (usually the number of substrate molecules converted per active site and unit of time at saturation) was found to be 0.81 ± 0.04 s⁻¹; the kcat/Km (usually the second-order rate constant that governs catalysis at low substrate concentration) amounted to 171 ± 8 M⁻¹ s⁻¹.

As to B2, the Km was found to be 3.85 ± 0.32 mM, the turnover number (kcat) was 1.06 ± 0.04 s⁻¹ and the kcat/Km turned out to be 275 ± 10 M⁻¹ s⁻¹.

As for B3, the Km is listed as 1.39 ± 0.10 mM, the kcat was determined as 1.22 ± 0.03 s⁻¹ and the specificity constant (kcat/Km) stood at 878 ± 21 M⁻¹ s⁻¹.

B4: the Km was 4.77 ± 0.17 mM, the catalytic constant (kcat) is 1.01 ± 0.02 s⁻¹ and the catalytic efficiency (kcat/Km) was found to be 212 ± 4 M⁻¹ s⁻¹.

B5: the Km stood at 1.06 ± 0.05 mM, the kcat stood at 2.25 ± 0.1 s⁻¹ and the kcat/Km was 2120 ± 94 M⁻¹ s⁻¹.

As to B6, the Km is on record as 3.58 ± 0.22 mM, the turnover number (kcat) was determined as 1.17 ± 0.03 s⁻¹ and the kcat/Km was found to be 327 ± 8 M⁻¹ s⁻¹.

B7: the Km came to 4.06 ± 0.21 mM, the kcat was 0.5 ± 0.01 s⁻¹ and the kcat/Km came out at 123 ± 2 M⁻¹ s⁻¹.

Regarding B8, the Km is on record as 5.11 ± 0.23 mM, the kcat turned out to be 1.56 ± 0.03 s⁻¹ and the kcat/Km came to 305 ± 6 M⁻¹ s⁻¹.

Regarding B9, the Km came out at 4.27 ± 0.39 mM, the turnover number (kcat) turned out to be 0.79 ± 0.01 s⁻¹ and the catalytic efficiency (kcat/Km) is 185 ± 2 M⁻¹ s⁻¹.

For the protein B10, the Michaelis constant (Km) amounted to 3.30 ± 0.17 mM, the kcat came to 0.64 ± 0.01 s⁻¹ and the kcat/Km was found to be 194 ± 3 M⁻¹ s⁻¹.

Consider B11, for which the Km is listed as 4.31 ± 0.28 mM, the catalytic constant (kcat) turned out to be 0.42 ± 0.01 s⁻¹ and the catalytic efficiency (kcat/Km) came to 97 ± 2 M⁻¹ s⁻¹.
